The results in this text go back to the Human Domainome abundance scans (Beltran et al. 2025).

± gives the uncertainty stated by the source.

First the molecules themselves.
B1: SAM and SH3 domain-containing protein 1, residues 630 to 700; numbered along this chain, O94885 (parent)
chain: GRPPQPKSVEDLLDRINLKEHMPTFLFNGYEDLDTFKLLEEEDLDELNIRDPEHRAVLLTAVELLQEYDSN

The data set covers variants of B1. Description: abundance fitness (aPCA) (normalised: wild type 0, dead -1); higher = more abundant; growth selection in yeast, the domain comes from the species named. The settings on record: Homo sapiens.
Turning to GRPPAPKSVEDLLDRINLKEHMPTFLFNGYEDLDTFKLLEEEDLDELNIRDPEHRAVLLTAVELLQEYDSN [Q5A], the abundance fitness was -0.291 ± 0.053. To GRPPQPKSVEDLLDRINLKEHMPTFLFNGYEDLDTFKLLEHEDLDELNIRDPEHRAVLLTAVELLQEYDSN [E41H] belongs -0.7 ± 0.076.

For the variant GRPPQPKSVEDLLDRINLKEHMPTFLFNGYEDLDTFKLLEFEDLDELNIRDPEHRAVLLTAVELLQEYDSN [E41F], the abundance fitness was -0.971 ± 0.091. Regarding GRPPQPKSVEDLLDRINLKEHMPTFLFNGYEDLDTFKLLEWEDLDELNIRDPEHRAVLLTAVELLQEYDSN [E41W], the abundance fitness was -0.567 ± 0.091. On to GRPPQPKSVEDLLDRINLKEHMPTFLFNGYEDLDTFKLLEEEDLDELNIRDPEHRAVLLTAVELLQEYISN [D69I], for which the abundance fitness was -0.836 ± 0.09. As to GRPPQPCSVEDLLDRINLKEHMPTFLFNGYEDLDTFKLLEEEDLDELNIRDPEHRAVLLTAVELLQEYDSN [K7C], the abundance fitness was -0.533 ± 0.066. With NRPPQPKSVEDLLDRINLKEHMPTFLFNGYEDLDTFKLLEEEDLDELNIRDPEHRAVLLTAVELLQEYDSN [G1N], the abundance fitness came out at 0.17 ± 0.082.

On to GRPPQPKSVEDLLDRINLKEHMPTFLFNGYEDLDTFKLLEEEDLDELNIRDPEHRAVLLTEVELLQEYDSN [A61E], for which the abundance fitness stood at 0.074 ± 0.062. As to GRPPQPKSVEDLLDRINLKEHMPTFLFNGYEDLDTFKLLEEEDLDELNYRDPEHRAVLLTAVELLQEYDSN [I49Y], the abundance fitness was -0.869 ± 0.07. In the case of GRPPQPKSVEDLLDRINLKEHMPTFLFNGYEDLDTFKLLEEEDLDELNTRDPEHRAVLLTAVELLQEYDSN [I49T], the abundance fitness is -0.863 ± 0.065. To GRPPQPKSVEDLLDRINLKEHMPTFLFNGYEDLDTFKFLEEEDLDELNIRDPEHRAVLLTAVELLQEYDSN [L38F] belongs -0.234 ± 0.059; to GRPPQPKSVEDLLDRINLKEHMPTFLFNGYEDLDTFKELEEEDLDELNIRDPEHRAVLLTAVELLQEYDSN [L38E], 0.03 ± 0.051; to GRPPQPKSVEDLLDRIDLKEHMPTFLFNGYEDLDTFKLLEEEDLDELNIRDPEHRAVLLTAVELLQEYDSN [N17D], -0.234 ± 0.057. To GRPPQPKSVEDLLDRILLKEHMPTFLFNGYEDLDTFKLLEEEDLDELNIRDPEHRAVLLTAVELLQEYDSN [N17L] belongs -0.891 ± 0.059; to GRPPQPKSVEDLLDRINLKEHMPTFLFNGYEDLDTFKLLEEEDLDELNIRDPEHRAVLLTAVELPQEYDSN [L65P], -0.88 ± 0.08. In the case of GRPPQPKSVEDLLDRINLKEHMPTFLFNGYEDLDTFKLLEEEDLDELNIRDPEHRAVLLTAVVLLQEYDSN [E63V], the abundance fitness is -0.831 ± 0.059.

Take GRPPQPKSVEDLLDRINLKEHMPTFLFNGYEDLDTFKLLEEEDLDELNIRMPEHRAVLLTAVELLQEYDSN [D51M]: the abundance fitness was -0.845 ± 0.077. For GRPPQPKSVEDLLDRINLKEHMPTFLFNGYEDLDTFKLLEEEDLDELNIRTPEHRAVLLTAVELLQEYDSN [D51T], the abundance fitness was -0.505 ± 0.048.

As to GRPPQPKSVEDLLDRINLKEHMPTFLFNGYEDLDTFKLLEEEDLDELNIRCPEHRAVLLTAVELLQEYDSN [D51C], the abundance fitness was -0.396 ± 0.052. GRPPQPKSVEDLLDRINLKEHMPTFLFNGYEDLDTFKLLEEEDLDELNIRYPEHRAVLLTAVELLQEYDSN [D51Y]: the abundance fitness is -0.774 ± 0.06. For GRPPQPKSVEDLLDRINLKEHMPTFLFNGYEDVDTFKLLEEEDLDELNIRDPEHRAVLLTAVELLQEYDSN [L33V] the value was -0.607 ± 0.058. Take GRPPQPKSVEDLLDRINLKEHMPTFLFNGYEDYDTFKLLEEEDLDELNIRDPEHRAVLLTAVELLQEYDSN [L33Y]: the abundance fitness was -1.15 ± 0.12. Turning to GRPPQPKSVEDLLDRINLKEHMPTFLFNTYEDLDTFKLLEEEDLDELNIRDPEHRAVLLTAVELLQEYDSN [G29T], the abundance fitness was -0.917 ± 0.073.

On to GRPPQPKSVEDLLDRINLKEHMPTFLFNWYEDLDTFKLLEEEDLDELNIRDPEHRAVLLTAVELLQEYDSN [G29W], for which the abundance fitness was -0.937 ± 0.11.

For the variant GRPPQPKSVEDLLDRINLKEHMPTFLFNGYEDLDTFKLLEEEDLDELNIRDPEFRAVLLTAVELLQEYDSN [H54F], the abundance fitness is -1.03 ± 0.085.

GRPPQPKSVEDLLDRINLKEHMPTFLFNGYEDLDTFKLLEEEDLDELNIRDPEWRAVLLTAVELLQEYDSN [H54W]: the abundance fitness is -0.96 ± 0.09. In the case of GRPPQPKSVEDLLDRINNKEHMPTFLFNGYEDLDTFKLLEEEDLDELNIRDPEHRAVLLTAVELLQEYDSN [L18N], the abundance fitness was -0.777 ± 0.081.

In the case of GRPPQPKSVEDLLDRINLKEHMPTFLFNGYEDLDTFKLLEEEDLMELNIRDPEHRAVLLTAVELLQEYDSN [D45M], the abundance fitness is -0.247 ± 0.051. For the variant GRPPQPKSVEDLADRINLKEHMPTFLFNGYEDLDTFKLLEEEDLDELNIRDPEHRAVLLTAVELLQEYDSN [L13A], the abundance fitness was -0.788 ± 0.075. Regarding GRPPQPKSVEDLLDRINLKECMPTFLFNGYEDLDTFKLLEEEDLDELNIRDPEHRAVLLTAVELLQEYDSN [H21C], the abundance fitness is -0.536 ± 0.058. With GRPPQPKSVEDLLDRINLKEHMPTFLFNGYEDLDTFKLIEEEDLDELNIRDPEHRAVLLTAVELLQEYDSN [L39I], the abundance fitness worked out at 0.058 ± 0.041. With GRPPQPKSVEDLLDRINLKEHMPTFLFNGYEDLDTFKLMEEEDLDELNIRDPEHRAVLLTAVELLQEYDSN [L39M], the abundance fitness is -0.319 ± 0.055. Take GRPPQPKSVEDLLDRINLKEHMPTFLFNGYEDLDTFKLLEEEDLDELNIRDPEHRAVLLTAHELLQEYDSN [V62H]: the abundance fitness was -0.596 ± 0.072. GRPPQPKSVEDLLDRINLKEHMPTFLFNGYEDLDTFKLLEEEDLDELNIRDPEHRAVLLTAQELLQEYDSN [V62Q]: the abundance fitness is -0.769 ± 0.091. As to GRPPQPKSVEDLLDRINLKEHMPWFLFNGYEDLDTFKLLEEEDLDELNIRDPEHRAVLLTAVELLQEYDSN [T24W], the abundance fitness was -0.892 ± 0.095. Take GRPPQPKSVEDLLDRINLKEHMPPFLFNGYEDLDTFKLLEEEDLDELNIRDPEHRAVLLTAVELLQEYDSN [T24P]: the abundance fitness is -0.88 ± 0.069. To GRPPQPKSVEDLLDRINLKEHMPSFLFNGYEDLDTFKLLEEEDLDELNIRDPEHRAVLLTAVELLQEYDSN [T24S] belongs -0.464 ± 0.044; to GRPPQPKSVEDLLDRINLKEHMPTFLFNGYEDLDTFKLLEEEHLDELNIRDPEHRAVLLTAVELLQEYDSN [D43H], -0.201 ± 0.042.

As for GRPPQPKSVEDLLDRINLKEHMPTFLFNGYEDLDTFKLLEEEILDELNIRDPEHRAVLLTAVELLQEYDSN [D43I], the abundance fitness is -0.584 ± 0.061.
